Reference: US20250262210A1 (TRUSTEES OF COLUMBIA UNIVERSITY IN THE CITY OF NEW YORK, published 2025)

Tests used:
Experiment in all cases: IP/MS, LZTR1 wild type-FLAG, U87
[1] = target: DIP2B (human, UniProt Q9P265 1-1576)
Summary of the method: (§1)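 Read-out: spectral counts from LC-MS/MS (Orbitrap Fusion) after MaxQuant identification. Variable modifications were Met oxidation, protein N-terminal acetylation and N/Q deamidation.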

[2] = target: IFT172 (human, UniProt Q9UG01 1-1749, limits assumed)
Summary of the method: as §1

[3] = target: ARHGEF28 (human, UniProt Q8N1W1 1-1705, limits assumed)
Summary of the method: as §1

[4] = target: POLR1A (human, UniProt O95602 1-1720)
Summary of the method: as §1

[5] = target: HELZ (human, UniProt P42694 1-1942, limits assumed)
Summary of the method: as §1

[6] = target: T1, SBNO2 (human, UniProt Q9Y2G9 1-1366, limits assumed)
T1 sequence (looked up): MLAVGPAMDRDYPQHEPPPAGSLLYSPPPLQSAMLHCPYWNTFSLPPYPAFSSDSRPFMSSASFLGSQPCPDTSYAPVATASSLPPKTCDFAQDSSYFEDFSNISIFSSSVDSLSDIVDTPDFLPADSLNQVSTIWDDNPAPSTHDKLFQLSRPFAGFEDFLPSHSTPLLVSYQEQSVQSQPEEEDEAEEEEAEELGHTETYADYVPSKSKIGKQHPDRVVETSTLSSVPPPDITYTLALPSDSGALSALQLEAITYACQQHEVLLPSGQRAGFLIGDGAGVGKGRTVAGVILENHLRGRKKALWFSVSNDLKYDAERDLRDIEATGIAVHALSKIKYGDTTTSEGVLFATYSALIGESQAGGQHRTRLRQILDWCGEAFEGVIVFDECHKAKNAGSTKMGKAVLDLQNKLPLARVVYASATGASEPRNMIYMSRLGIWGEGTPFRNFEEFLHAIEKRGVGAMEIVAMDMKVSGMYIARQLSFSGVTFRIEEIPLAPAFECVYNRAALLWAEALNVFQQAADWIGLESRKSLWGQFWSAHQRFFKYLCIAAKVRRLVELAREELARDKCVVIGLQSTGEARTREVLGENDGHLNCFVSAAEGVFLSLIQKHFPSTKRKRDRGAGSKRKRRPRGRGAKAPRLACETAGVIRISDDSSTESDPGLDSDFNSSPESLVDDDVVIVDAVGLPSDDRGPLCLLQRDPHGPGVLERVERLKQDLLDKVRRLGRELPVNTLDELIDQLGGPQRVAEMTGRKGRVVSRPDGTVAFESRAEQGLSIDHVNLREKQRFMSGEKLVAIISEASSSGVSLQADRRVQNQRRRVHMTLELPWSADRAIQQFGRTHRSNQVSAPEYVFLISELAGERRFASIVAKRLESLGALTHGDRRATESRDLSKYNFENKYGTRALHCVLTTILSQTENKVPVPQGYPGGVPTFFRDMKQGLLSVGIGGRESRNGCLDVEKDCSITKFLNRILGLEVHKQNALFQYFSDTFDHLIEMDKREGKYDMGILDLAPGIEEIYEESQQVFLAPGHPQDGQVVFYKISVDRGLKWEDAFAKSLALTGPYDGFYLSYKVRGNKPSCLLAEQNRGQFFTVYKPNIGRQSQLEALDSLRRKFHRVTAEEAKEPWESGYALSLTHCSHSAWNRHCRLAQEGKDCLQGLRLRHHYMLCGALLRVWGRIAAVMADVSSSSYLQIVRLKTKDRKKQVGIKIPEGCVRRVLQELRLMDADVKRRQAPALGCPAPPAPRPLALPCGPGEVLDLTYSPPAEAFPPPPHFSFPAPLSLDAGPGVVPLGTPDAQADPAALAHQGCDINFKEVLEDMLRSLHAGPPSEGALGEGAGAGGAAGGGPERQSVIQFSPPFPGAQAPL
Summary of the method: as §1

[7] = target: TRRAP (human, UniProt Q9Y4A5 2-3859, limits assumed)
Summary of the method: as §1

[8] = target: RNF213 (human, UniProt Q63HN8 1-5207, limits assumed)
Summary of the method: as §1

[9] = target: SKIV2L (human, UniProt Q15477 1-1246)
Summary of the method: as §1

[10] = target: PTPN23 (human, UniProt Q9H3S7 1-1636)
Summary of the method: as §1

Measured: binding result

SKIV2L, sequence (Q15477 whole entry): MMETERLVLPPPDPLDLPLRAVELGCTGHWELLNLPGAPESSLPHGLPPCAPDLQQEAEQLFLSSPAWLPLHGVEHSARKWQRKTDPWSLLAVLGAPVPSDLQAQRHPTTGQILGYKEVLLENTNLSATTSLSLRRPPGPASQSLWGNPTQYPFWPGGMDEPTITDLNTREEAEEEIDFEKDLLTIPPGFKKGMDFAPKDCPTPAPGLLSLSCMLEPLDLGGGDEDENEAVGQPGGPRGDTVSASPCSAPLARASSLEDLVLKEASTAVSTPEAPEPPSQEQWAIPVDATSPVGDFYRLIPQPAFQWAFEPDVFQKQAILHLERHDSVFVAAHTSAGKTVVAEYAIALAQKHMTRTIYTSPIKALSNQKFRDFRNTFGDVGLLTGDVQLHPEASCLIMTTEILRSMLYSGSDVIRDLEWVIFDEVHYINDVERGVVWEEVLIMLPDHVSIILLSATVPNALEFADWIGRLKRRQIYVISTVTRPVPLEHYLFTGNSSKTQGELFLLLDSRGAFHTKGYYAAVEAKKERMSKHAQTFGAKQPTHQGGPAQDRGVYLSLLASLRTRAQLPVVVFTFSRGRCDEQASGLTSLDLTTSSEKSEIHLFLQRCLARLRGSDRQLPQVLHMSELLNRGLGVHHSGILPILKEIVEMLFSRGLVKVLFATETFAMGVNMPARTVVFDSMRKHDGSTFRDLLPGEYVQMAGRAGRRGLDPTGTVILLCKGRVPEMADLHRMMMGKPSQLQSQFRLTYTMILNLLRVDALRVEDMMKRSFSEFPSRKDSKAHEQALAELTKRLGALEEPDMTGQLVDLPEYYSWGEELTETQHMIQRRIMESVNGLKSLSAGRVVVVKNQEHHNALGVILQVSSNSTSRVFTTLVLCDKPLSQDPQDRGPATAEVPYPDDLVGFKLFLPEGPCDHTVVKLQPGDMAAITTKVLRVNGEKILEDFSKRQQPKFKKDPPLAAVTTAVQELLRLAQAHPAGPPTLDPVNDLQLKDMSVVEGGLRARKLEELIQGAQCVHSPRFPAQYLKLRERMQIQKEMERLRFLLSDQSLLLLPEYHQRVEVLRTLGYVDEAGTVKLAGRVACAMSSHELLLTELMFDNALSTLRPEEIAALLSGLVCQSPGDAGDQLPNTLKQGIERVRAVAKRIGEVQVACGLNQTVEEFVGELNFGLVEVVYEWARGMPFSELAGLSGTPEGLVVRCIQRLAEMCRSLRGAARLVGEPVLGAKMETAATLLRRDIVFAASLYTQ
TRRAP, sequence (Q9Y4A5 2-3859 limits assumed): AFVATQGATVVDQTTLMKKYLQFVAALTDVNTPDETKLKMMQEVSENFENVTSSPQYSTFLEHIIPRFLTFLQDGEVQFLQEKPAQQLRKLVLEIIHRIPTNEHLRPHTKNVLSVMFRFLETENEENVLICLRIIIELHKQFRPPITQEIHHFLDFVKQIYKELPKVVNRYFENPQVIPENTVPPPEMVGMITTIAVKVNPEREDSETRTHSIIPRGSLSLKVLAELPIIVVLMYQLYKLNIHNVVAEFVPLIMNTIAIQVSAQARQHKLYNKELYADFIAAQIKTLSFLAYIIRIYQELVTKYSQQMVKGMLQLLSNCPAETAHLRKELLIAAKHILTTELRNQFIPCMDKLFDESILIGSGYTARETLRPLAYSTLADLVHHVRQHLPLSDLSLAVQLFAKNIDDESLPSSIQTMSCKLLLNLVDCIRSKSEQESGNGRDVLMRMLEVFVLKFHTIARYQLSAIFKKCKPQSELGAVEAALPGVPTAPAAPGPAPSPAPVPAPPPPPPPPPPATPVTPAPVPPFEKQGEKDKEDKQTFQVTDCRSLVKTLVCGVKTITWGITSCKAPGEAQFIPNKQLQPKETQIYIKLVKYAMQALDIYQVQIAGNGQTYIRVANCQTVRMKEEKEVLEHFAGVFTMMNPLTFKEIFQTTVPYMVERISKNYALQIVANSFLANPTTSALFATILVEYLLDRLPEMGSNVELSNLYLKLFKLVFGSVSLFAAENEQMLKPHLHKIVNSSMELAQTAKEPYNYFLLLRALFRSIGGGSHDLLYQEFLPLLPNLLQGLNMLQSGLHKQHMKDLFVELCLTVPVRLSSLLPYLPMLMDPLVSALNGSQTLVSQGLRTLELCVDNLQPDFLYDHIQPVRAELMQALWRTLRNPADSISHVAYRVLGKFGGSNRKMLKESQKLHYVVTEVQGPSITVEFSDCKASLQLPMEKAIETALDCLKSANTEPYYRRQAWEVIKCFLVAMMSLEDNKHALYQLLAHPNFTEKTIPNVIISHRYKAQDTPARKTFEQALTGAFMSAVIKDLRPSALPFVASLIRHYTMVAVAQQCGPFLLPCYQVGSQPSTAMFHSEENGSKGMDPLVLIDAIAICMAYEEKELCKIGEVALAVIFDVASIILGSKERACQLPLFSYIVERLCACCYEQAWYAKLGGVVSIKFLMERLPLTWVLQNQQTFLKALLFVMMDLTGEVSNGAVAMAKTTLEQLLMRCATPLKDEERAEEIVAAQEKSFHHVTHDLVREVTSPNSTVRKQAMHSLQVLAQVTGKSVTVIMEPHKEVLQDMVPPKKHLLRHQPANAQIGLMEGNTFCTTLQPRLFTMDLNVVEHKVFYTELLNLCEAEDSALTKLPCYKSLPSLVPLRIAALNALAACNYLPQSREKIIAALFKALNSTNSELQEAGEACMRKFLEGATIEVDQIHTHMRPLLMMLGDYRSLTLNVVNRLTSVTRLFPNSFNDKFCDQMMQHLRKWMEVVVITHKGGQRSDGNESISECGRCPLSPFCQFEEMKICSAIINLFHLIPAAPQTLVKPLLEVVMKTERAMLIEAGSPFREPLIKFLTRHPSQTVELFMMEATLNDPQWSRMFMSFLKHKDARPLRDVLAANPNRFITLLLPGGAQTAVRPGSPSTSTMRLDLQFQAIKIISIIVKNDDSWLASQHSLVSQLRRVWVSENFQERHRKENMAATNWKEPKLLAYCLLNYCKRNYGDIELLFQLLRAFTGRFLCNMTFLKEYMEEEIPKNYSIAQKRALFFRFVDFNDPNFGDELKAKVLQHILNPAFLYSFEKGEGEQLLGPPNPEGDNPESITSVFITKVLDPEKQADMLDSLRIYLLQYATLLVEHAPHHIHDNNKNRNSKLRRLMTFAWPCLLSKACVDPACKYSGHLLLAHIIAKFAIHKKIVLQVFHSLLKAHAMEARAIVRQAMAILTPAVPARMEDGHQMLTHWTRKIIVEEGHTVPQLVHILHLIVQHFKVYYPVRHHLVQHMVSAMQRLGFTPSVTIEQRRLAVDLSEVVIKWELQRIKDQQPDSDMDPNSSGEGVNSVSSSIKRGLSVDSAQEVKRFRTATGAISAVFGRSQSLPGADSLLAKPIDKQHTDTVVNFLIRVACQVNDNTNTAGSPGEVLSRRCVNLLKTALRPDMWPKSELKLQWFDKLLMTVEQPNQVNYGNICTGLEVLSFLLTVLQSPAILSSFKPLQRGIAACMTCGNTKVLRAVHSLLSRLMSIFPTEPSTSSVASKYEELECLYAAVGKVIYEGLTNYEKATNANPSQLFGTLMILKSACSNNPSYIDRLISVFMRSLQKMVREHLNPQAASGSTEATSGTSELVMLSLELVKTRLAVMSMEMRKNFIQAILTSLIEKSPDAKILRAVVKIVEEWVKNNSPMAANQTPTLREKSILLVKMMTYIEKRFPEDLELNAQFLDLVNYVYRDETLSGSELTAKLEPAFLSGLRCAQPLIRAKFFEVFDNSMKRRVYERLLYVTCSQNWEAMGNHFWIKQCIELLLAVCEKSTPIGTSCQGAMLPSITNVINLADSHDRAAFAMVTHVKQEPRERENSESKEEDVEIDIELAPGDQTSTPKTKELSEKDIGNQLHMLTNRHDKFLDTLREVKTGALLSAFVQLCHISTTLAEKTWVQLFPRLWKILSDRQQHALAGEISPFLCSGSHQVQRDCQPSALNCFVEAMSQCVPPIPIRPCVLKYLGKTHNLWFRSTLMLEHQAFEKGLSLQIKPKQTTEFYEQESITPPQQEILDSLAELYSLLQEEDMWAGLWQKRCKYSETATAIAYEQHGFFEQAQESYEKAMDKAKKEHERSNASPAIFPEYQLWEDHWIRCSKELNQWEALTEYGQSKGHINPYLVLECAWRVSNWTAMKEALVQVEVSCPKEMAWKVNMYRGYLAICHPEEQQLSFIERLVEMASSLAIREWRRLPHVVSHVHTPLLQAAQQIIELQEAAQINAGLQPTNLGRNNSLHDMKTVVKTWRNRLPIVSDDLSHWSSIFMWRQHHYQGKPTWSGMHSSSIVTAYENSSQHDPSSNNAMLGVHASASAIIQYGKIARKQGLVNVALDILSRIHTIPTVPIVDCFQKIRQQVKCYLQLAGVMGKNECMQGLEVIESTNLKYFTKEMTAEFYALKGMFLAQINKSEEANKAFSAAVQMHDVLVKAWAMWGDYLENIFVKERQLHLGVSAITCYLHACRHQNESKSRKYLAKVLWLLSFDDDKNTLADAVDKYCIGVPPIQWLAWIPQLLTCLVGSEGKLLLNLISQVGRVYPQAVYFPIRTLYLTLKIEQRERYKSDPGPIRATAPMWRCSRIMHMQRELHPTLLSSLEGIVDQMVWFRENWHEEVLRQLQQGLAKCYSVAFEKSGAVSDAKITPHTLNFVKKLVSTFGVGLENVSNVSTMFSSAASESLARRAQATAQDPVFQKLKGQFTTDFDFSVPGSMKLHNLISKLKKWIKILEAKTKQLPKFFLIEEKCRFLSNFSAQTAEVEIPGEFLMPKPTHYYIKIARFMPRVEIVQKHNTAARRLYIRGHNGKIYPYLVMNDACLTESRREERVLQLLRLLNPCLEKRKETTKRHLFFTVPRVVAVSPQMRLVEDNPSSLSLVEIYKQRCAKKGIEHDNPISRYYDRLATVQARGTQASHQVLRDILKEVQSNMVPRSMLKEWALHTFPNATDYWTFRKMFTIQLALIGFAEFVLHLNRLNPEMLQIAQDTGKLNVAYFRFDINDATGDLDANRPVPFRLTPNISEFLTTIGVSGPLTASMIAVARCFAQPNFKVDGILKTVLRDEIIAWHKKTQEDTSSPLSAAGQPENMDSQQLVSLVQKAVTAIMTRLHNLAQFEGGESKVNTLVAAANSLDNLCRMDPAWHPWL

B1: LZTR1-FLAG (other, human, UniProt Q8N653 1-840, looked up)
chain: MAGPGSTGGQIGAAALAGGARSKVAPSVDFDHSCSDSVEYLTLNFGPFETVHRWRRLPPCDEFVGARRSKHTVVAYKDAIYVFGGDNGKTMLNDLLRFDVKDCSWCRAFTTGTPPAPRYHHSAVVYGSSMFVFGGYTGDIYSNSNLKNKNDLFEYKFATGQWTEWKIEGRLPVARSAHGATVYSDKLWIFAGYDGNARLNDMWTIGLQDRELTCWEEVAQSGEIPPSCCNFPVAVCRDKMFVFSGQSGAKITNNLFQFEFKDKTWTRIPTEHLLRGSPPPPQRRYGHTMVAFDRHLYVFGGAADNTLPNELHCYDVDFQTWEVVQPSSDSEVGGAEVPERACASEEVPTLTYEERVGFKKSRDVFGLDFGTTSAKQPTQPASELPSGRLFHAAAVISDAMYIFGGTVDNNIRSGEMYRFQFSCYPKCTLHEDYGRLWESRQFCDVEFVLGEKEECVQGHVAIVTARSRWLRRKITQARERLAQKLEQEAAPVPREAPGVAAGGARPPLLHVAIREAEARPFEVLMQFLYTDKIKYPRKGHVEDVLLIMDVYKLALSFQLCRLEQLCRQYIEASVDLQNVLVVCESAARLQLSQLKEHCLNFVVKESHFNQVIMMKEFERLSSPLIVEIVRRKQQPPPRTPLDQPVDIGTSLIQDMKAYLEGAGAEFCDITLLLDGHPRPAHKAILAARSSYFEAMFRSFMPEDGQVNISIGEMVPSRQAFESMLRYIYYGEVNMPPEDSLYLFAAPYYYGFYNNRLQAYCKQNLEMNVTVQNVLQILEAADKTQALDMKRHCLHIIVHQFTKVSKLPTLRSLSQQLLLDIIDSLASHISDKQCAELGADI
notes: Expressed in HEK 293T, HeLa or U87 cells; used as cell lysate; also called LZTR1 wild type-FLAG; LZTR1 WT; not shown: FLAG tag at the C-terminus
binds: all assays above
